From PMC6381605, “NR4A Nuclear Receptors Target Poly-ADP-Ribosylated DNA-PKcs Protein to Promote DNA Repair”

Molecular target: NR4A2 R319A (UniProt Q06219 1-598, R319A)
Assay: EMSA; EMSA: 1 ug protein, 10 mM Tris pH 8, 50 mM NaCl, 1 mM EDTA, 5% glycerol, 5 mM DTT, 20 ng/ul dIdC, 1.25 mg/ml BSA, 20 min room temperature; 5% PAGE 0.25x TBE. PAR dot blots left out (PAR is not a defined nucleic acid).
Settings: protein: recombinant; tags: GST tag cleaved (PreScission); label: 32P (alpha-32P-dCTP Klenow fill-in); 5' overhang 4 nt (GATC) on both ends before Klenow fill-in

Chain of NR4A2 R319A (Q06219 whole entry R319A): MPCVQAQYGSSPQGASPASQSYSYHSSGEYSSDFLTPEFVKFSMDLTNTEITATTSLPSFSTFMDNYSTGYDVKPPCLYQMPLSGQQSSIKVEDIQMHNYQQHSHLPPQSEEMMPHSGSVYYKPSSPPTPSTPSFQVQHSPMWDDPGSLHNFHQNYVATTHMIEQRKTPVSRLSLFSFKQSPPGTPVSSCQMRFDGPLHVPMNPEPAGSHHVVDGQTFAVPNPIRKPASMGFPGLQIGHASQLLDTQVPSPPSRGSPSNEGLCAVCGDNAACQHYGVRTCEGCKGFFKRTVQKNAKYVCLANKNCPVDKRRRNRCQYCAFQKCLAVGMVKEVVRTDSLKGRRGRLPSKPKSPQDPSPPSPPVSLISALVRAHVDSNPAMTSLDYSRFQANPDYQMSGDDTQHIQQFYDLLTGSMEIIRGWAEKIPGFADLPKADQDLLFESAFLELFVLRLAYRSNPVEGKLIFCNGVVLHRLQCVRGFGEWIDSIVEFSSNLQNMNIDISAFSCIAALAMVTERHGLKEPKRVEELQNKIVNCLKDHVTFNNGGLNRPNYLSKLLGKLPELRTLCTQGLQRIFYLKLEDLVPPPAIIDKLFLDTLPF

B1: NBRE (dsDNA)
DNA 1: GATCCTCGTGCGAAAAGGTCAAGCGCTA
DNA 2: GATCTAGCGCTTGACCTTTTCGCACGAG
binding result: no binding
